Experimental data published in patent publication US12679878B2, “CRF2 receptor agonists and their use in therapy” (SANOFI, priority 2020, dated 2026).
Starred links: 1 amine or outer side, 2 acyl side, 3 side chain; linkers in the order of their positions; H or OH if unused. Non-standard residues stand in square brackets, D forms with d. Groups on a side chain read outwards from the residue. No end group written: not given here. *: point of attachment. C18 diacid = O=C(O)CCCCCCCCCCCCCCCCC(=O)*; γGlu = O=C(O)[C@H](CCC(=O)[*:2])N[*:1]; AEEA = NCCOCCOCC(=O)O

T1: anti-target CRF1R receptor (UniProt P34998 24-415, limits assumed)
T1 sequence (looked up): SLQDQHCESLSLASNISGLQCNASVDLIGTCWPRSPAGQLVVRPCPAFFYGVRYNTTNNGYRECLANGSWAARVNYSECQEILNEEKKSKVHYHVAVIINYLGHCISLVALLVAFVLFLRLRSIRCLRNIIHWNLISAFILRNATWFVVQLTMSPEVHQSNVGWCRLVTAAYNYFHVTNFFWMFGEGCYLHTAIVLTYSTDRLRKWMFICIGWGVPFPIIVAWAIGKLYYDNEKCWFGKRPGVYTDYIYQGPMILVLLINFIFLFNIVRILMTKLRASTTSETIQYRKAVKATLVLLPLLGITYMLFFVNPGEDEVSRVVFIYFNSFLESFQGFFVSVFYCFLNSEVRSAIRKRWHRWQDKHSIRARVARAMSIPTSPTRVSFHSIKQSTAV

T2: endogenous human CRF2 (NCI-H82 cells) (human, UniProt Q13324 20-411)
T2 sequence (looked up): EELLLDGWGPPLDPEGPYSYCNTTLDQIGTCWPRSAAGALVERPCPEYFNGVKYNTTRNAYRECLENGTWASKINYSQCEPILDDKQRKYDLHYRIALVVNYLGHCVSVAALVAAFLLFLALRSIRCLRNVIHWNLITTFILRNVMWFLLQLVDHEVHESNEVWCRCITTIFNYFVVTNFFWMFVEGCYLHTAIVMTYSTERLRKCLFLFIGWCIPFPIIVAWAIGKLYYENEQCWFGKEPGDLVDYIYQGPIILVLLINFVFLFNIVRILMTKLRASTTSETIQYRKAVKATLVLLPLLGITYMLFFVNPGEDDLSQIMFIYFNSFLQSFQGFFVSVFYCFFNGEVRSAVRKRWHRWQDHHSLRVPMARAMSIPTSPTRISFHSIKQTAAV


Assays:
Assay in all cases: cell-based or functional assay
rat CRF2R α receptor = rat CRF2R α receptor (rat, UniProt P47866 20-411)
[1] = target: T1, anti-target CRF1R receptor
[2] = target: T2, endogenous human CRF2 (NCI-H82 cells)

| EC50 [nM], 0% HSA (cAMP, A7R5 cells) (rat CRF2R α receptor) | EC50[nM] 0% HSA (cAMP, CRF1R-overexpression CHO cells) [1] | Emax (%) (cAMP, CRF1R-overexpression CHO cells) [1] | EC50 [nM] (cAMP, NCI-H82 cells) [2] | Binder |
| --- | --- | --- | --- | --- |
| 0.26 nM | > 1000 nM | 4.38% | 8.4 nM | IVLSLD[dV]PIKLK([AEEA-AEEA-γGlu-C18 diacid])QILLKQERQKKQREKAEKNKQILAQV-NH2 (N-terminus assumed; SMILES CC[C@H](C)[C@H](N)C(=O)N[C@H](C(=O)N[C@@H](CC(C)C)C(=O)N[C@@H](CO)C(=O)N[C@@H](CC(C)C)C(=O)N[C@@H](CC(=O)O)C(=O)N[C@@H](C(=O)N1CCC[C@H]1C(=O)N[C@H](C(=O)N[C@@H](CCCCN)C(=O)N[C@@H](CC(C)C)C(=O)N[C@@H](CCCCNC(=O)COCCOCCNC(=O)COCCOCCNC(=O)CC[C@H](NC(=O)CCCCCCCCCCCCCCCCC(=O)O)C(=O)O)C(=O)N[C@@H](CCC(N)=O)C(=O)N[C@H](C(=O)N[C@@H](CC(C)C)C(=O)N[C@@H](CC(C)C)C(=O)N[C@@H](CCCCN)C(=O)N[C@@H](CCC(N)=O)C(=O)N[C@@H](CCC(=O)O)C(=O)N[C@@H](CCCNC(=N)N)C(=O)N[C@@H](CCC(N)=O)C(=O)N[C@@H](CCCCN)C(=O)N[C@@H](CCCCN)C(=O)N[C@@H](CCC(N)=O)C(=O)N[C@@H](CCCNC(=N)N)C(=O)N[C@@H](CCC(=O)O)C(=O)N[C@@H](CCCCN)C(=O)N[C@@H](C)C(=O)N[C@@H](CCC(=O)O)C(=O)N[C@@H](CCCCN)C(=O)N[C@@H](CC(N)=O)C(=O)N[C@@H](CCCCN)C(=O)N[C@@H](CCC(N)=O)C(=O)N[C@H](C(=O)N[C@@H](CC(C)C)C(=O)N[C@@H](C)C(=O)N[C@@H](CCC(N)=O)C(=O)N[C@H](C(N)=O)C(C)C)[C@@H](C)CC)[C@@H](C)CC)[C@@H](C)CC)C(C)C)C(C)C) [peptide of SEQ ID NO: 138] |
| 0.1 nM | > 1000 nM | 37.6% | 18 nM | IVLSLD[dV]PIKLK([AEEA-AEEA-γGlu-C18 diacid])QILLKQERQKKQRQQAEKNKQILAQV-NH2 (N-terminus assumed; SMILES CC[C@H](C)[C@H](N)C(=O)N[C@H](C(=O)N[C@@H](CC(C)C)C(=O)N[C@@H](CO)C(=O)N[C@@H](CC(C)C)C(=O)N[C@@H](CC(=O)O)C(=O)N[C@@H](C(=O)N1CCC[C@H]1C(=O)N[C@H](C(=O)N[C@@H](CCCCN)C(=O)N[C@@H](CC(C)C)C(=O)N[C@@H](CCCCNC(=O)COCCOCCNC(=O)COCCOCCNC(=O)CC[C@H](NC(=O)CCCCCCCCCCCCCCCCC(=O)O)C(=O)O)C(=O)N[C@@H](CCC(N)=O)C(=O)N[C@H](C(=O)N[C@@H](CC(C)C)C(=O)N[C@@H](CC(C)C)C(=O)N[C@@H](CCCCN)C(=O)N[C@@H](CCC(N)=O)C(=O)N[C@@H](CCC(=O)O)C(=O)N[C@@H](CCCNC(=N)N)C(=O)N[C@@H](CCC(N)=O)C(=O)N[C@@H](CCCCN)C(=O)N[C@@H](CCCCN)C(=O)N[C@@H](CCC(N)=O)C(=O)N[C@@H](CCCNC(=N)N)C(=O)N[C@@H](CCC(N)=O)C(=O)N[C@@H](CCC(N)=O)C(=O)N[C@@H](C)C(=O)N[C@@H](CCC(=O)O)C(=O)N[C@@H](CCCCN)C(=O)N[C@@H](CC(N)=O)C(=O)N[C@@H](CCCCN)C(=O)N[C@@H](CCC(N)=O)C(=O)N[C@H](C(=O)N[C@@H](CC(C)C)C(=O)N[C@@H](C)C(=O)N[C@@H](CCC(N)=O)C(=O)N[C@H](C(N)=O)C(C)C)[C@@H](C)CC)[C@@H](C)CC)[C@@H](C)CC)C(C)C)C(C)C) [peptide of SEQ ID NO: 139] |
